Measured values reported in FireProtDB (doi:10.1110/ps.062595707).
Where “and” joins values, the source holds several entries; their conditions need not be identical. Identical values can stand only once.

B1: Ribose import binding protein RbsB, P02925 (parent)
chain: MNMKKLATLVSAVALSATVSANAMAKDTIALVVSTLNNPFFVSLKDGAQKEADKLGYNLVVLDSQNNPAKELANVQDLTVRGTKILLINPTDSDAVGNAVKMANQANIPVITLDRQATKGEVVSHIASDNVLGGKIAGDYIAKKAGEGAKVIELQGIAGTSAARERGEGFQQAVAAHKFNVLASQPADFDRIKGLNVMQNLLTAHPDVQAVFAQNDEMALGALRALQTAGKSDVMVVGFDGTPDGEKAVNDGKLAATIAQLPDQIGAKGVETADKVLKGEKVQAKYPVDLKLVVKQ

Variants of: B1
Conditions: Escherichia coli (strain K12); pH 7; Thermal; CD; Phosphate 5 mM; structure 2DRI; whole UniProt chain shown

| Variant | change of melting temperature, mutant - wild type (higher = more stable) | Tm |
| --- | --- | --- |
| S34A I157A | -0.7 °C and 2.4 °C | – |
| F189A | -5.8 °C and -10.4 °C | 51.7 °C and 53.3 °C |
| N215A | -8.1 °C and -12.2 °C | 49.4 °C and 51.5 °C |
| S34A | -1.5 °C and 0.1 °C | – |
| D240A | – | 51.2 °C and 51.3 °C |
| F239A | – | 48 °C and 46 °C |
| Q260A | – | 58.2 °C and 58.9 °C |
